Sequences and labels used below:
B1: TPR t1 (parent)
chain: GACCAAUCUGCCCUCAGAGCUCGAGAACAUCUUCGGAUGCAGAGGAGGCAGGCUUCGGUGGCGCGAUAGCGCCAACGUCCUCAACCUCCAAUGCAUCCCACCACAUGAUGAUGCCUGAAGAGCCUUGGUUUUUUG

From the RNAGym collection of RNA variant scans (doi:10.1073/pnas.2313332121) come the findings set out here.

The series covers variants of B1. Nature of the series: polymerase ribozyme fitness, log enrichment relative to wild type (log ratio); higher = more active; in vitro selection for triplet polymerase activity. Summed up: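 Input and output libraries were sequenced on Illumina after a single in vitro selection round, run in triplicate on PCR-built, transcribed mutant libraries of each subunit of a heterodimeric triplet polymerase ribozyme. Selection annealed libraries to a biotinylated primer, the partner subunit and triplets, incubated them frozen at −7 °C, then gel-excised extended constructs for streptavidin-bead capture and RT-PCR. Genotypes with ≥10 input reads and ≥1 read per output were kept. Fitness is the logarithm, taken in base 2, of genotype enrichment divided by wild-type enrichment, using inverse-variance-weighted replicate averages.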
For GACCAAUCUGCCCUCAGAGCUCGAGAACAUCUUCGGAUGCAGAGGAGGCAGGCUUCGGUGGCGCGAUAGUGCCAACGUCCUCAACCUCCAAUGCAUCCCACCACAUGAUUAUGCCUGAAAAGCCUUGGGUUUUUG [C70U G110U G120A U129G], the “polymerase ribozyme fitness (log ratio)” value was -5.09. For GACCAAUCUGCCCUGAGAGCUCGAGAACAUCUUCGGAUGCAGAGGAGGCAGGCUUCGGUGGCGCGAUAGCGCCAACGUCCUCAACCUCCAAUGCAUCCCUCCACAUGAUGAUGCCUGAAGAGCCUUGGUUUUUUG [C15G A100U] the value was -4.44; for GACCAAUCUGCCCUCAGAGCUCGAGAACAUCUUCGGAUGCAGAGGAGCCAGGCUUCGGUGGCGCGAUAGCGCCAACGUCCUCAACCUCCAAUGCAUCCCACCACAUGAUGAUGCCUGAAGAGCCUUGCUUUUUUG [G48C G128C], -2.75; for GACCAAUCUGCCCUCAGAGCUCGAGAACAUCUUCGUAUGCAGAGGAGGCAGGUUUCGGUGACGCGAUAGCGCCAACGUCCUCAACCUCCAAUGCAUCCCACCACAUGAUGAUGCCUGGAGAGCCUUGGUUUUUUG [G36U C53U G61A A118G], -1.48.

Consider GACCAAUCUGCCCUCAGAGCUCGAGAACAUCAUCGGAUGCAGCGGAGGCAGGCUUCGGUGGCCCGAUAGCGCCAACGUCCUCAACCUCCAAUGCAUCCCACCACAUGAUGAUGCCUGAAGAGCCUUGGUUUUUUG [U32A A43C G63C], for which the “polymerase ribozyme fitness (log ratio)” value was -6.22. For GACCAAUCUGCACUCAGACCUCGAGAACAUCUUCGGAUGCAGAGGAGGCAGGCUUCGGUGGCGCGAUAGCGCCAACGUCCUCAAUCUCCAUUGCAUCCCACCACAUGAUGAUGCCUGAAGAUCCUUGGUUUUUUG [C12A G19C C85U A91U G122U] the value was -3.66; for GACCAAUCCCCCCUCAAAGCUCGAGAACAUCUUCGGAUGCAGAGGAGGCAGGCUUCGGUGGCACGAUAGCGCCAACGUCCCCAACCUCCAAAGUAUCCCACCACAUGAGGAUGCCUGAGGAGCCUUGGUUUUUUG [U9C G10C G17A G63A U81C U92A C94U U109G A119G], -7.69; for GACCAUUCUGCCAUCAGAGCCCGAGAACAUCUUCGGAUGCAGAGGAGGCAGGCUUCGGUGGCGCGAUAGCGCCAACGUCCUCAACCUCCAAUGCAUCCCACCACAUGAUGAUGCCUGAAGAGCCUUGGUUUUUUG [A6U C13A U21C], -1.41. Consider GACCAAUCUGCCCUCAGAGCUCGAGAACAUCUUCGGAUGCAGAGGAGGCAGGCUUCGGUGGCGCGAUAGCGCCAACUUCCUCAGGCUCCAAUGCAUCCCACCACAUGAUGAUGCCUGAAGAGCCUUGGUUUUUUG [G77U A84G C85G], for which the “polymerase ribozyme fitness (log ratio)” value was -2.45.

On to GACCAAUCUGCCCUCAGAGCUCGAGAACAUCUUCGGAUGCAGAGGAGGCAGGCUUCGGUGGCGCAAUAGCGCCAACGUCCUCAACCUCCAAUGCAUCCCACCACAUGAUGAUGCCUGAUGAGCCUUGGUUUUUUG [G65A A119U], for which the “polymerase ribozyme fitness (log ratio)” value was -6.05.

Turning to GACCAAUCUGCCCUCAGAGCUCGAGAACAUCUUCGGAUGCAGAGGAGGCAGGCUUCGGUGGCGCGAUAGCGCCAACGUCCUCAACCUCCAAUUCAUCCCACCACAUGAUGAUGCCUGAAGUGCCUUGGUUGUUUG [G93U A121U U131G], the “polymerase ribozyme fitness (log ratio)” value was 0.33.

Consider GACCAAUCUGCCCUCAGAGCUCGAGAACAUCUUCGGAUGCAGAGGAGGCAGGCUUCGGUAGCGCGAUAGCGCCAACGUCCUCAACCUCCUAUGCAUCCCACCACAUGAUGAUGCCUGAAGAGCCUUGGUUUUUUG [G60A A90U], for which the “polymerase ribozyme fitness (log ratio)” value was -1.06. As to GACCAAUCUGCCCUCAGAGCUCGAGAACAUCUUCGGAUACAGAGGAGGCAGGCUUGGGUGGCGCGAUAGCGCCAACGUCCUCAACCUCCAAUGGAUCCCACCACAUGAUGCUGUCUGAAGAGCCUUGGUGUUUUG [G39A C56G C94G A111C C114U U130G], the “polymerase ribozyme fitness (log ratio)” value was -4.67. As for GACCAAUCUGCCCUCAGAGCUCGAGAACAUCUUCGGAUGCAGAGGAGGCAGGCUUCGGUCGCGCGAUAUCGCCAACGUCCUCAACCUCCAAUACAUCCCACCACAUGAUGAUCCCUGAAGAGCCUUGGUUUUUUG [G60C G69U G93A G113C], the “polymerase ribozyme fitness (log ratio)” value was -5.05.

For GACCAAGCUGCCCUCAGAGCUCGAGAACAUCUUCGGAUGCAGAGGAGGCAGGCUUCGGUGGCGCGAUAGCGCAAACGUCAUCAACCUCCAAUGCAUCCCACCACAUGAUGAUGCCUGAAGAGCCUUGCUUUUUUG [U7G C73A C80A G128C], the “polymerase ribozyme fitness (log ratio)” value is -5.2. As to GACCAAUCUGCCCUCAGAGCUGGAGAACAUCUUCGGAUGCAGAGGAGGCAGGCUUCGGUGGCGCGAUACCGCCAACUUCCUCAACCUCCAAUGCAUCCCAGCACAUGAUGAUGCUUGAAGAGCCUUGGUUUUUUG [C22G G69C G77U C101G C115U], the “polymerase ribozyme fitness (log ratio)” value was -5.91. For GACCAAUCUGCCCUCAGAGCUCGAGAACAUCUUUGGAUGCAGAGGAGGCAGGCUUCAGUGGCGCGAUAGCGCCAACGUCCUCAACCUCCAAUGCAUCCCACCACAUAAAGAUGCCGGAAGAGCCUUGGUUUUUUG [C34U G57A G107A U109A U116G] the value was -6.43; for GACCAAUCUGCGCUCAGAGCUCGAGAACAUCUGCGGAUGCAGAGGAGGCAGGCUUCGGUGGCGCGAUAGCGCCAAAGUCCUCAACCUCCAAUGCAUCCCCCCACAUGAUGAUGCCUGAAGAGGCUUGGUUUUUUG [C12G U33G C76A A100C C123G], -5.88; for GACCAAUCUGCCCUCAGAGCUCGAGAACAUCUUCGGAUGCAGAGGAGGCAGGCUUCGGUGUCGCGAUAGCGCCAACGUCCUCAACCUCCAAUGCAUCCCACCACAUGAGGAUGCCUGAAGAGCCUUGGUUUUUUG [G61U U109G], -4.68. In the case of GACCAAUCUGCCCUCAGUGCUCGAGAACAUCUUCGGAUGCAGAGGAGGCAGGCUUCGGUGGCGCGAUAGCGCUAACGUCCUCAACCUCCAAUGCAACCCACCACAUGAUGAUGCCUGAAGAGCCUUGGUUUUUUG [A18U C73U U96A], the “polymerase ribozyme fitness (log ratio)” value was -3.25. Take GACCAAUCUGCCCUAAGAGCUCGAGAACAUCUUCGGGUGCAGAGUAGGCAGGCUUCGGUGGCGCGAUAGCGACAACGUCCUCAACCUCCAAUUCAUCCCACCACAUGAUGACGCCUGAAGACGCAUGGUUUUUUG [C15A A37G G45U C72A G93U U112C G122C C123G U125A]: the “polymerase ribozyme fitness (log ratio)” value was -3.59.
